Among the data in paper PMC9597352 are pulldown relative to RUFY1 (densitometry, normalized to input) values, retold here.

This experiment concerns the target T1, GST-Arl8b, Q9NVJ2.
T1 chain: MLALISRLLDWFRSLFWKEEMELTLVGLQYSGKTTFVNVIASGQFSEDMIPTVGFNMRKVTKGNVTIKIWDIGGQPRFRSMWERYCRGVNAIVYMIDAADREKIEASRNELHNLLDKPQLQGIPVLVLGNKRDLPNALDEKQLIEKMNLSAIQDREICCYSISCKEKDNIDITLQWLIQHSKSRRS
Briefly: pull-down; GST-Arl8b on glutathione-agarose beads loaded with 20 mM GTP (TAP lysis buffer, 10 mM MgCl2, 30 min, 4°C), then HEK293T lysates of transfected cells, 2 h, 4°C; anti-FLAG blot. As to conditions: remark: other sources report otherwise.

B1: RUFY3-FLAG, Q7L099 1-469 (natural protein)
chain: MSALTPPTDMPTPTTDKITQAAMETIYLCKFRVSMDGEWLCLRELDDISLTPDPEPTHEDPNYLMANERMNLMNMAKLSIKGLIESALNLGRTLDSDYAPLQQFFVVMEHCLKHGLKAKKTFLGQNKSFWGPLELVEKLVPEAAEITASVKDLPGLKTPVGRGRAWLRLALMQKKLSEYMKALINKKELLSEFYEPNALMMEEEGAIIAGLLVGLNVIDANFCMKGEDLDSQVGVIDFSMYLKDGNSSKGTEGDGQITAILDQKNYVEELNRHLNATVNNLQAKVDALEKSNTKLTEELAVANNRIITLQEEMERVKEESSYILESNRKGPKQDRTAEGQALSEARKHLKEETQLRLDVEKELEMQISMRQEMELAMKMLEKDVCEKQDALVSLRQQLDDLRALKHELAFKLQSSDLGVKQKSELNSRLEEKTNQMAATIKQLEQSEKDLVKQAKTLNSAANKLIPKHH
B1 showed a pulldown relative to RUFY1 (densitometry, normalized to input) of 2 fold.
